Measured values: patent publication US20230348852A1, “METHODS AND COMPOSITIONS FOR OCULAR CELL THERAPY” (NOVARTIS AG, priority 2020, published 2023)

Assays:
[1] = tested on: beta-2-microglobulin gene; test: CRISPR/Cas9-mediated deletion of B2M in LSCs (nucleofection, FACS); type: cell-based, human; conditions: nucleofection with Cas9 protein SEQ ID NO: 107, LSCs at passage 0, FACS
Description: LSCs at passage 0 were trypsinized with TryLE®Express Enzym (ThermoFisher, Cat #12605010) for 15 min in 5%CO2 at 37° C. After scraping the cells, the reaction was stopped by using cell culture medium containing 10% Serum and transferred to a falcon tube. After counting cells using Vi-cell 200′000 cells were prepared per reaction by transferring 200′000 cells in single tubes and centrifuged at 1000 rpm for 5 min.
The supernatant was aspirated using manually pipetting to avoid cell loss and the cells were resuspended in the Stem cell nucleofector solution II (Lonza, Cat #VPH-5022). Resuspend cells in nucleofector solution immediately before adding the Cas9 protein:sgRNA mixture. A stock of 100 µM (3.23 µg/µl) was prepared resuspending 5.1 nanomoles of single-guideRNA (sgRNA) in 51 µl 10 mM Tris buffer pH7.4. […]
In order to prevent cells sticking to the wall, collection tubes were filled with FACS buffer for 30 minutes before the sort and aspirated before adding the collection medium. […] FACS data were analyzed using BD FACSDiva software and FlowJo software.

[2] = tested on: genomic DNA purified from male human peripheral blood mononuclear cells; test: Biochemical assay for potential off-target genomic sites cleaved by Cas9 and B2M guides; conditions: number of potential off-target sites, guide concentration 64 nM
Description: A biochemical method (See, e.g., Cameron et al., Nature Methods. 6, 600-606; 2017) was used to determine potential off-target genomic sites cleaved by Cas9 and selected B2M guides. Guides showing B2M indel activity were tested for potential off-target genomic cleavage sites with this assay. […] The number of potential off-target sites detected using a guide concentration of 64 nM in the biochemical assay are shown in Table 10. As a result of this analysis, several gRNAs were selected for analysis of potential off-target activity in limbal stem cells.

B2M = test: Targeted PCR and NGS (amplicon sequencing) of on-target and off-target sites in genome-edited LSCs; type: cell-based, human; conditions: for Number of sites positive for off-target activity in LSCs: of the potential off-target loci sequenced; for B2M purified rhAmpSeq indel: purified (B2M negative) LSC populations
Description: Potential CRISPR/Cas9-mediated cutting sites identified above were evaluated using targeted PCR and NGS in genome-edited expanded LSCs.
Selected sgRNAs (SEQ ID NO: 120, 162, 166, 167, 171, and 175) were further analyzed by amplicon sequencing in edited and non-edited cells. Primers flanking the potential off-target sites for each guide were used to detect indels by NGS analysis in edited LSCs and non-edited peripheral blood mononuclear cells. Sites that had either (1) a difference in mean indel percentage between edited and unedited cells greater than 0.5%; or (2) a p value less than 0.05 between edited and unedited indel were further analyzed. NGS sequence reads for such sites were assessed for characteristic indel patterns near the putative Cas9 cut site. Based on the results, we could assess the specificity of gRNAs and their suitability for therapeutic applications.

B1: 1-CR004366: gRNA targeting human B2M; targeting domain SEQ ID NO: 108; sgRNA SEQ ID NO: 120; from Dharmacon (nucleic acid)
guide: GAGUAGCGCGAGCACAGCUAGUUUUAGAGCUAGAAAUAGCAAGUUAAAAUAAGGCUAGUCCGUUAUCAACUUGAAAAAGUGGCACCGAGUCGGUGCUUUU
modifications: listed as RNA, chemistry not given here
notes: gRNA targeting human B2M; from Dharmacon
LSCs not expressing B2M and HLA I (HLA A, B and C) on cell surface [1]: about 70%
off-target Site_ Count [2]: 69
validated indels for off-target activity in LSCs (B2M; amplicon sequencing of potential off-target loci): zero
Number of sites positive for off-target activity in LSCs (B2M): 0 of 64
Number of sites positive for off-target activity in LSCs (B2M; listed as SEQ ID NO: 120): no predicted sites tested positive for off-target activity
B2M purified rhAmpSeq indel (B2M): 99.60±0.44%
B2M purified rhAmpSeq indel (B2M; listed as SEQ ID NO: 120): ~ 99%
